± gives the standard error. For some of these results: Variants at the floor of the assay were thinned out.
B1: glmS ribozyme (parent)
chain: AUAAAAGCGCCAGAACUACAGAAAUGUAGUUGACGAGGAGGAGGUUUAUCGAAUUUUCGGCGGAUGCCUCCAAA

What was measured:
Conditions in all cases: with glucosamine-6-phosphate
glucosamine-6-phosphate [1] = variants of: B1; assay: kcat; higher = faster cleavage; RNA array
In short: (§1)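 The measurements used barcoded ribozyme variants on sequenced MiSeq chips, transcribed in situ by E. coli RNA polymerase and tracked at 37 °C with a hybridised Cy3 probe. Glucosamine-6-phosphate, 40 μM to 10 mM in HEPES/KCl/Mg(OAc)2 buffer, was flowed in while tiles were imaged over ~14 h. Baseline-normalised signals, also normalised to non-cleaving reference variants, gave per-tile medians that were fit to one- or two-exponential decays for kobs. kcat and KM resulted from weighted Michaelis–Menten fits across concentrations.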

glucosamine-6-phosphate [2] = variants of: B1; assay: self-cleavage kobs at 640 uM GlcN6P; higher = faster cleavage; RNA array
In short: as §1

glucosamine-6-phosphate [3] = variants of: B1; assay: self-cleavage kobs at 10000 uM GlcN6P; higher = faster cleavage; RNA array
In short: as §1

glucosamine-6-phosphate [4] = variants of: B1; assay: self-cleavage kobs at 2500 uM GlcN6P; higher = faster cleavage; RNA array
In short: as §1

glucosamine-6-phosphate [5] = variants of: B1; assay: KM; higher = weaker cofactor use; RNA array
In short: as §1

glucosamine-6-phosphate [6] = variants of: B1; assay: self-cleavage kobs at 40 uM GlcN6P; higher = faster cleavage; RNA array
In short: as §1

glucosamine-6-phosphate [7] = variants of: B1; assay: self-cleavage kobs at 160 uM GlcN6P; higher = faster cleavage; RNA array
In short: as §1

Row | Variant | kcat (glucosamine-6-phosphate [1]) | self-cleavage kobs at 640 uM GlcN6P (glucosamine-6-phosphate [2]) | self-cleavage kobs at 10000 uM GlcN6P (glucosamine-6-phosphate [3]) | self-cleavage kobs at 2500 uM GlcN6P (glucosamine-6-phosphate [4]) | KM (glucosamine-6-phosphate [5]) | self-cleavage kobs at 40 uM GlcN6P (glucosamine-6-phosphate [6]) | self-cleavage kobs at 160 uM GlcN6P (glucosamine-6-phosphate [7])
1 | U54C G63U | < 1e-05 s⁻¹ | < 1e-05 s⁻¹ |  |  |  |  | 
2 | G32U G37A | 4.33e-05 ± 1.3e-05 s⁻¹ |  | 3.21e-05 ± 6.6e-06 s⁻¹ |  |  |  | 
3 | A6U U30C | < 1e-05 s⁻¹ | < 1e-05 s⁻¹ |  | < 1e-05 s⁻¹ |  |  | 
4 | C11U G37C | 1.18e-05 ± 3.2e-06 s⁻¹ |  |  |  |  |  | 
5 | U45G A64G | 0.00935 ± 0.0026 s⁻¹ | 0.00161 ± 0.0003 s⁻¹ | 0.00759 ± 0.002 s⁻¹ | 0.00451 ± 0.00092 s⁻¹ | 2790 ± 990 µM | 0.000169 ± 2.8e-05 s⁻¹ | 0.000411 ± 0.00011 s⁻¹
6 | C16G U55G | 0.0033 ± 0.0015 s⁻¹ | 0.000789 ± 0.00012 s⁻¹ | 0.00368 ± 0.00057 s⁻¹ | 0.00148 ± 0.00031 s⁻¹ |  | 0.000147 ± 2.3e-05 s⁻¹ | 0.000227 ± 5.1e-05 s⁻¹
7 | U55A C68G | 8.49e-05 ± 3.5e-06 s⁻¹ | 8.75e-05 ± 1.2e-05 s⁻¹ | 8.04e-05 ± 7.4e-06 s⁻¹ | 8.44e-05 ± 1.1e-05 s⁻¹ | 51.2 ± 14 µM | 3.36e-05 ± 1e-05 s⁻¹ | 6.64e-05 ± 1e-05 s⁻¹
8 | U54C C68A | 2.49e-05 ± 6.3e-06 s⁻¹ |  |  |  |  | < 1e-05 s⁻¹ | 
9 | A52C C67G | 1.74e-05 ± 6.9e-06 s⁻¹ |  |  |  |  |  | 
10 | G44C U56A | 7.55e-05 ± 7.5e-06 s⁻¹ |  | 5.85e-05 ± 6.8e-06 s⁻¹ | 3.9e-05 ± 1.4e-05 s⁻¹ | 2860 ± 1100 µM |  | 
11 | G62A U69G | 3.25e-05 ± 8.9e-06 s⁻¹ | 3.57e-05 ± 1.7e-05 s⁻¹ |  | 3.47e-05 ± 1.6e-05 s⁻¹ |  |  | 
12 | A42U C67A | 0.00217 ± 0.00044 s⁻¹ | 0.00067 ± 9.7e-05 s⁻¹ | 0.00183 ± 0.00019 s⁻¹ | 0.00183 ± 0.00029 s⁻¹ | 1400 ± 460 µM | 7.75e-05 ± 9.8e-06 s⁻¹ | 0.000151 ± 3.4e-05 s⁻¹
13 | C11G G32A U69G | 3.08e-05 ± 7e-06 s⁻¹ |  |  |  |  |  | 
14 | U30C A39U | 0.000228 ± 2.1e-05 s⁻¹ | 6.71e-05 ± 1e-05 s⁻¹ | 0.000203 ± 2.2e-05 s⁻¹ | 0.000123 ± 1.7e-05 s⁻¹ | 1730 ± 380 µM |  | 
15 | G59U | 5.77e-05 ± 1.4e-06 s⁻¹ | 1.83e-05 ± 1.7e-06 s⁻¹ | 5.11e-05 ± 9.9e-07 s⁻¹ | 4.03e-05 ± 1.3e-06 s⁻¹ | 1210 ± 130 µM | < 1e-05 s⁻¹ | 
16 | G41U U45G | 0.000293 ± 5.4e-05 s⁻¹ | 0.000129 ± 1.7e-05 s⁻¹ | 0.000243 ± 4.4e-05 s⁻¹ | 0.000339 ± 9.1e-05 s⁻¹ | 909 ± 340 µM |  | 3.13e-05 ± 1.4e-05 s⁻¹
17 | G40U U46C | 0.00175 ± 0.00024 s⁻¹ | 0.000365 ± 5e-05 s⁻¹ | 0.00137 ± 0.00016 s⁻¹ | 0.000971 ± 0.00014 s⁻¹ | 2420 ± 530 µM | 4.23e-05 ± 1.1e-05 s⁻¹ | 9.14e-05 ± 1.9e-05 s⁻¹

Reference: the supplement of paper PMC7125110
